# From article PMC12404239
# Legend:
# [1] = molecular target: SARS-CoV-2 spike glycoprotein (S) (SARS-CoV-2) (UniProt P0DTC2); test: […], running buffer TBS, […]
# [2] = molecular target: influenza B haemagglutinin (HA) B/Maryland/15/16 (influenza B virus (B/Maryland/15/16)); test: […], running buffer TBS, […]
Substance,stoichiometry N [1],stoichiometry N [2]
SARS-CoV-2 spike glycoprotein (S) (from UniProt P0DTC2 14-1273) (natural protein),3,–
influenza B haemagglutinin (HA) B/Maryland/15/16 (natural protein),–,3
